Results from patent US20240002532A1.

Target: HER2 (human epidermal growth factor receptor 2) (human) (UniProt P04626)
Assay: cell-based or functional assay

Question: Which maximal cytolysis of SKOV3 tumor cells (xCELLigence, donor T cells, E:T 1:1) does the source give for “CasMab250 (H/L)-based CAR with medium spacer (IgG4 hinge & CH3 domain) and CD28-CD3ζ1XX intracellular signaling domains” here?
Answer: The maximal cytolysis of SKOV3 tumor cells (xCELLigence, donor T cells, E:T 1:1) was 90%.
